Measurements taken from patent publication US20030194404A1 (SCHERING, published 2003).

Columns and labels:
[1] = molecular target: T1, recombinant human IL-5 (human, UniProt P05113 20-134); assay: KinExA 3000 kinetic exclusion assay, Dual Curve (Unknown Antigen) method
T1 construct: also called rhIL-5; interleukin-5
T1 sequence (looked up): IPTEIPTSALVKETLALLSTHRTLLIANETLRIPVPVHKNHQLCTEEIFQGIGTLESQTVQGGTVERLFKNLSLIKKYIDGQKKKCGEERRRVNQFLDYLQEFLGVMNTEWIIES
Procedure: (§1) The KinExA uses the principle of the Kinetic Exclusion Assay method based on measuring the concentration of uncomplexed antibody in a mixture of antibody, antigen and antibody-antigen complex. The concentration of free antibody is measured by exposing the mixture to a solid-phase immobilized antigen for a very brief period of time. In practice, this is accomplished by flowing the solution phase antigen-antibody mixture past antigen coated particles trapped in a flow cell. Data, generated by the instrument are analyzed using custom software. Equilibrium constants are calculated using a mathematical theory based on the following assumptions:
(§2) All experimental procedures were performed according to the KinExA 3000™ Manual. All runs were done in duplicate.
(§3) The antibody molecular weight used for calculation was 150 Kda.

[2] = molecular target: T1, recombinant human IL-5; assay: cell-based or functional assay
[3] = molecular target: T2, murine IL-5 (murine, UniProt P04401 21-133); assay: cell-based or functional assay
T2 sequence (looked up): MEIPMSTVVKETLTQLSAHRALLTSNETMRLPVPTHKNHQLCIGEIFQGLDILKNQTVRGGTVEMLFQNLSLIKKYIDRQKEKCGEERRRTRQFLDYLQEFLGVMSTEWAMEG

[4] = molecular target: T1, recombinant human IL-5; assay: KinExA 3000 kinetic exclusion assay, Dual Curve analysis (Standard mode), 0.1 and 0.01 nM antibody
Procedure: as §1, §2, §3

- Kd [1]: 19.5 pM
- IC50, TF-1 anti-proliferation assay [2]: 250 pM
- IC50, TF-1 anti-proliferation assay [3]: 380 pM
- Kd [4]: 15 pM
B1: human monoclonal antibody 20.13.3 (antibody, human IgG4, kappa, V domains shown)
VH: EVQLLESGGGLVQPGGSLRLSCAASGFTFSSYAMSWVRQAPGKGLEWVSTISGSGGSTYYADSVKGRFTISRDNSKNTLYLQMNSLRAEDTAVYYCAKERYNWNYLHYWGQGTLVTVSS
VL: DIQMTQSPSSLSASVGDRVTITCQASQDIINYLNWYQQKPGKAPKLLIYSASNLETRVPSRFSGSGSGTDFTFTISSLQPEDIATYYCQQYDNHPLTFGGGTKVEIRR
